The values that follow come from patent US12491259B2, “Anti-variable MUC1* antibodies and uses thereof” (Minerva Biotechnologies Corporation, priority 2022, dated 2025).

In this test the test system is T47D-MUC1* breast cancer cells. As to the kind of experiment: ADC cell killing, photographs and PrestoBlue live/dead cell assay. Type of test: cell-based, human. The conditions noted are these: 500 nM and 6.2 nM, 120 hours. The procedure: T47D-MUC1* is a cell line in which T47D cells have been transduced to express even more MUC1*. MNC2-ADC was incubated with T47D-WT cells (FIG. 10A-10G) or T47D-MUC1* cells (FIG. 11A-11G). […] These experiments are shown as just one example. […] The toxin that is attached to the anti-MUC1* antibody may be one of several known to those skilled in the art. Similarly, MNC2 may be human or humanized.
In this next experiment, a valine-citrulline p-aminobenzylcarbamate (VC-PAB) linker was used to connect the deglycosylated antibody and the toxin. The linker is separately coupled to the MMAE at one end, then the other end is reacted with maleimide, then coupled to the antibody after reduction through alkylation. MMAE inhibits cell division by blocking the polymerization of tubulin. […] The viability of the 72 hour co-cultures was measured using a cell death indicator called PrestoBlue™ (Thermo Fisher Scientific, Waltham, MA) (FIG. 17). […]
As another example of how antibodies of the invention can be incorporated into ADCs, antibody drug conjugates, for the treatment of MUC1* positive cancers, a toxin was attached to another anti-MUC1* antibody, 20A10. […] The viability of the 72 hour co-cultures was measured using a cell death indicator called PrestoBlue™ (Thermo Fisher Scientific, Waltham, MA) (FIG. 19). […]

B1: MNC2-Deruxtecan (conjugate)
VH: EVQLVESGGGLVKPGGSLRLSCAASGFTFSGYAMSWVRQAPGKGLEWVSTISSGGTYIYYPDSVKGRFTISRDNAKNSLYLQMNSLRAEDTAVYYCARLGGDNYYEYFDVWGKGTTVTVSS
VL: DIVLTQSPASLAVSPGQRATITCRASKSVSTSGYSYMHWYQQKPGQPPKLLIYLASNLESGVPARFSGSGSGTDFTLTINPVEANDTANYYCQHSRELPFTFGGGTKVEIKRT
As for B1, the “killing effect in photographs” value is recorded as “significant decrease in cell number”.
